Laboratory results published in PMC3183262.

Key:
Experiment in all cases: Ni-NTA pull-down of fluorescent DNA with competition, filter plate
[1] = molecular target: IF2D1-Klf4-R9 (human, UniProt O43474 1-513)
[2] = molecular target: IF2D1-Oct4-R9 (human, UniProt Q01860 1-360)
[3] = molecular target: IF2D1-Sox2-R9 (human, UniProt P48431 1-317)
Chain of IF2D1-Sox2-R9 (P48431 whole entry): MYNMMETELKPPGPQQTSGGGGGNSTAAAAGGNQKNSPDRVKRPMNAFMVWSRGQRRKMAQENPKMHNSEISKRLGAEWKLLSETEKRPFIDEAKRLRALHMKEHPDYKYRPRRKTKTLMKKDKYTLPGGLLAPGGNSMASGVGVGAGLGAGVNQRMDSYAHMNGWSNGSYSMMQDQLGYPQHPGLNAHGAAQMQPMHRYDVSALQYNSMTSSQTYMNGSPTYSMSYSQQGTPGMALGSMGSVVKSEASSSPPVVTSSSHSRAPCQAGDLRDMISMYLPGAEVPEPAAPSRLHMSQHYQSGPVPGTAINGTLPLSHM

Chain of IF2D1-Klf4-R9 (O43474 whole entry): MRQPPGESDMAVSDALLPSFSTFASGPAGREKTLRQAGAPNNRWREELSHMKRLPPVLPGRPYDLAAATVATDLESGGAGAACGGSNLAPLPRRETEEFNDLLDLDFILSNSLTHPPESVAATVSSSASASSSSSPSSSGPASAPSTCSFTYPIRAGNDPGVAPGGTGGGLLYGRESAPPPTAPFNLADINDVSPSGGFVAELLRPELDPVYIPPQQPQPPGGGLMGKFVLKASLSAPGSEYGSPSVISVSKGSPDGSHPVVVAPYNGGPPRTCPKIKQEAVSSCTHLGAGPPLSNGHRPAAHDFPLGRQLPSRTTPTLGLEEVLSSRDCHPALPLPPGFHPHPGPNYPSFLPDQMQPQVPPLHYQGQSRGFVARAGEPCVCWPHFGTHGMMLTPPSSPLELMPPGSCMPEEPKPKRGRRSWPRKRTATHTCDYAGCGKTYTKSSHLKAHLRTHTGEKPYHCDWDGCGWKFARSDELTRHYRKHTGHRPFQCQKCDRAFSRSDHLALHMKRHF
Chain of IF2D1-Oct4-R9 (Q01860 whole entry): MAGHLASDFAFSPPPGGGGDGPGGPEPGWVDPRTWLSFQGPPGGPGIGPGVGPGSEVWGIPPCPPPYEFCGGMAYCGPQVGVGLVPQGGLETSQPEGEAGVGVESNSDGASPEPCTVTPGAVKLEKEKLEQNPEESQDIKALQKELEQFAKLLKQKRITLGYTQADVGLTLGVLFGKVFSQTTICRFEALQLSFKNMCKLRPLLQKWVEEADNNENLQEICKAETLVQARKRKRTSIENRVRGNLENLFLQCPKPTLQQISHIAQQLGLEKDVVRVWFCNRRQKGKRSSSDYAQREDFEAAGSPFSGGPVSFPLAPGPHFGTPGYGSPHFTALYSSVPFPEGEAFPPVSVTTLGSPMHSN

B1: Klf4 cognate probe (dsDNA)
DNA 1: CAGAGAACCCCACCCATAAACCCCACCCATAAACCCCACCCCG
DNA 2: CGGGGTGGGGTTTATGGGTGGGGTTTATGGGTGGGGTTCTCTG
B1: binds [1].

B2: Oct4 cognate probe (dsDNA)
DNA 1: CAGAGAGATGCATGTGAGATGCATGTGAGATGCATCG
DNA 2: CGATGCATCTCACATGCATCTCACATGCATCTCTCTG
B2: binds [2].

B3: Sox2 cognate probe (dsDNA)
DNA 1: CAGAGGACAAAGGTGGACAAAGGTGGACAAAGCG
DNA 2: CGCTTTGTCCACCTTTGTCCACCTTTGTCCTCTG
B3: binds [3].
